We go through 2 molecules from patent US20240294623A1 (SCHOLAR ROCK, published 2024).

The target in experiment [1] is T1, hGARP-proTGFβ1 (human, UniProt Q14392 18-627; P01137 30-390, limits assumed).
T1 construct: LLC as m1; Same id used for the cell-surface complex in reporter assays; also called human GARP-proTGFβ1 complex; GARP-ProTGFb1
As to the kind of experiment: MSD-SET, hIgG4. As to the method: (§1) For solution equilibrium titration-based binding assays, protein complexes that comprise one of the presenting molecules such as those shown above may be employed as antigen (presenting molecule-TGFβ1 complex, or an LLC). Test antibodies are allowed to form antigen-antibody complex in solution. Antigen-antibody reaction mixtures are incubated to allow an equilibrium to be reached; the amount of the antigen-antibody complex present in the assay reactions can be measured by suitable means well known in the art. As compared to BLI-based assays, SET-based assays are less affected by on/off rates of the antigen-antibody complex, allowing sensitive detection of very high affinity interactions.

In experiment [2] the target is T2, hLRRC33-proTGFβ1 (human, UniProt Q86YC3 19-650; P01137 30-390, limits assumed).
T2 construct: LLC as m1; Same id used for the cell-surface complex in reporter assays; also called human LRRC33-proTGFβ1 complex; LRRC33-ProTGFb1
The experiment is described as follows: MSD-SET, hIgG4. As to the method: as §1

For experiment [3], the target named is T3, hLTBP1-proTGFβ1 (human, UniProt Q14766 347-1721; P01137 30-390, limits assumed).
T3 construct: Large latent complex (LLC): proTGFβ1 dimer disulfide-linked to one presenting molecule; recombinant, purified, biotinylated in BLI/SPR; The same id is used for the complex made by transfected cells in the reporter assays; also called human LTBP1-proTGFβ1 complex; LTBP1-ProTGFb1
The experiment is described as follows: MSD-SET, hIgG4. Here is the method: as §1

Experiment [4] has as its target T4, hLTBP3-proTGFβ1 (human, UniProt Q9NS15 44-1303; P01137 30-390, limits assumed).
T4 construct: LLC as m1; Same id used for the cell-made complex in reporter assays; also called human LTBP3-proTGFβ1 complex; LTBP3-ProTGFb1
The experiment is described as follows: MSD-SET, hIgG4. Here is the method:
as §1

The target of experiment [5] is T1, hGARP-proTGFβ1. As to the kind of experiment: cell-based or functional assay.
The target of experiment [6] is T2, hLRRC33-proTGFβ1. As to the kind of experiment: cell-based or functional assay.
Experiment [7] deals with T3, hLTBP1-proTGFβ1. The experiment is described as follows: cell-based or functional assay.
For experiment [8], the target named is T4, hLTBP3-proTGFβ1. The experiment is described as follows: cell-based or functional assay.
Experiment [9] concerns the target T1, hGARP-proTGFβ1. As to the kind of experiment: BLI (Octet).
Experiment [10] addresses T2, hLRRC33-proTGFβ1. As to the kind of experiment: BLI (Octet). On the technique in general: BLI is a label-free optical method that tracks binding on a fibre tip over time.
Experiment [11] concerns the target T3, hLTBP1-proTGFβ1. As to the kind of experiment: BLI (Octet).
Experiment [12] deals with T4, hLTBP3-proTGFβ1. The experiment is described as follows: BLI (Octet).
In experiment [13] the target is T1, hGARP-proTGFβ1. As to the kind of experiment: MSD-SET.
The target in a further experiment is mLRRC33-proTGFβ1 (murine, UniProt Q8BMT4 20-651). The experiment is described as follows: MSD-SET.
The target in experiment [14] is T2, hLRRC33-proTGFβ1. As to the kind of experiment: MSD-SET.
A further experiment has as its target T5, mLTBP1-proTGFβ1 (mouse).
T5 construct: Murine LLC; also called murine LTBP1-proTGFβ1 complex
As to the kind of experiment: MSD-SET.

The target in experiment [15] is T3, hLTBP1-proTGFβ1. As to the kind of experiment: MSD-SET.
A further experiment deals with T6, mGARP-proTGFβ1 (mouse).
T6 construct: Murine LLC; also called murine GARP-proTGFβ1 complex
As to the kind of experiment: MSD-SET.

Experiment [16] concerns the target T4, hLTBP3-proTGFβ1. As to the kind of experiment: MSD-SET.
The target in a further experiment is T7, mLTBP3-proTGFβ1 (mouse).
T7 construct: Murine LLC; also called murine LTBP3-proTGFβ1 complex
The experiment is described as follows: MSD-SET.

T3 sequence (Q14766 347-1721 limits assumed, chain 1 of 2): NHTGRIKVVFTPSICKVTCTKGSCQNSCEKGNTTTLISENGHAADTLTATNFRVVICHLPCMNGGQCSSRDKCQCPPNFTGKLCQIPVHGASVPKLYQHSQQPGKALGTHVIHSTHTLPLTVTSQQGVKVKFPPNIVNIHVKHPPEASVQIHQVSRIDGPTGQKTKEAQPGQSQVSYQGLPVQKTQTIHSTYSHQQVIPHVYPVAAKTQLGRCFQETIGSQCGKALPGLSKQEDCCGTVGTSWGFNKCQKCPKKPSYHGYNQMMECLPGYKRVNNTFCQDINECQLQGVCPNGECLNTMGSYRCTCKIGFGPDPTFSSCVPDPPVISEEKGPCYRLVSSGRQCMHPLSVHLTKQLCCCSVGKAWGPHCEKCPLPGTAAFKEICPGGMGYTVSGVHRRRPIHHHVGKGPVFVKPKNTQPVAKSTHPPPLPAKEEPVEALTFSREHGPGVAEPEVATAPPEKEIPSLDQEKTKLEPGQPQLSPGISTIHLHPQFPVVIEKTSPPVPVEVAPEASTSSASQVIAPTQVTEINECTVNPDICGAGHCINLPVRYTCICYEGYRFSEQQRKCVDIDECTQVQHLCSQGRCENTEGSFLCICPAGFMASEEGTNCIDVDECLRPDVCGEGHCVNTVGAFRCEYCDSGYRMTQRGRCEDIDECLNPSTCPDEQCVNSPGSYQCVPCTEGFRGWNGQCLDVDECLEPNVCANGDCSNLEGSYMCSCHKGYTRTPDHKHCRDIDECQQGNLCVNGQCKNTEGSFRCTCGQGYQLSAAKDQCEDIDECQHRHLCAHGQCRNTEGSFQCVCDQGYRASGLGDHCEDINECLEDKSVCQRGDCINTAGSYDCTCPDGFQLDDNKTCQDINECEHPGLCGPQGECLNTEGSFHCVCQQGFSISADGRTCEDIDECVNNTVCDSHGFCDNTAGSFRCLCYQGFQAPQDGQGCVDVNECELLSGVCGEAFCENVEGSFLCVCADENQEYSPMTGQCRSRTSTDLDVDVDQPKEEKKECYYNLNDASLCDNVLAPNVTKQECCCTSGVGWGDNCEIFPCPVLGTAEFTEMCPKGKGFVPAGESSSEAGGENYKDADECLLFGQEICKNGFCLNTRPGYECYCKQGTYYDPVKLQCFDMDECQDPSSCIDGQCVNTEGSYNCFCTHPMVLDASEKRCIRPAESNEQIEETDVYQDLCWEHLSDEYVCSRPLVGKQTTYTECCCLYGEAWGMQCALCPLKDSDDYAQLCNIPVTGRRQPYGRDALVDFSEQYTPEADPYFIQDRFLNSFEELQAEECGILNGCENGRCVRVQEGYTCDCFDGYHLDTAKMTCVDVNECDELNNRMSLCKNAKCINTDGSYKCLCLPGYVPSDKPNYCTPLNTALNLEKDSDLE
T3 sequence (P01137 30-390 limits assumed, chain 2 of 2): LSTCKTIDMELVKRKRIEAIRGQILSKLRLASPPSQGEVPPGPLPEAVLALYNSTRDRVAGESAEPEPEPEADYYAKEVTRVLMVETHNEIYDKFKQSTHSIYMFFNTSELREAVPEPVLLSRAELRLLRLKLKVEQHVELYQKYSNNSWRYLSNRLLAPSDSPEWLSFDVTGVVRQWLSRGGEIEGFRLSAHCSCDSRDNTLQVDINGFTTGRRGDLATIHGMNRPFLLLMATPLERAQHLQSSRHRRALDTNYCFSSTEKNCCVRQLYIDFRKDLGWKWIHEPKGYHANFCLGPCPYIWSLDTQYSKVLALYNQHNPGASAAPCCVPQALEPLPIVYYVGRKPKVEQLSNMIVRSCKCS
T4 sequence (Q9NS15 44-1303 limits assumed, chain 1 of 2): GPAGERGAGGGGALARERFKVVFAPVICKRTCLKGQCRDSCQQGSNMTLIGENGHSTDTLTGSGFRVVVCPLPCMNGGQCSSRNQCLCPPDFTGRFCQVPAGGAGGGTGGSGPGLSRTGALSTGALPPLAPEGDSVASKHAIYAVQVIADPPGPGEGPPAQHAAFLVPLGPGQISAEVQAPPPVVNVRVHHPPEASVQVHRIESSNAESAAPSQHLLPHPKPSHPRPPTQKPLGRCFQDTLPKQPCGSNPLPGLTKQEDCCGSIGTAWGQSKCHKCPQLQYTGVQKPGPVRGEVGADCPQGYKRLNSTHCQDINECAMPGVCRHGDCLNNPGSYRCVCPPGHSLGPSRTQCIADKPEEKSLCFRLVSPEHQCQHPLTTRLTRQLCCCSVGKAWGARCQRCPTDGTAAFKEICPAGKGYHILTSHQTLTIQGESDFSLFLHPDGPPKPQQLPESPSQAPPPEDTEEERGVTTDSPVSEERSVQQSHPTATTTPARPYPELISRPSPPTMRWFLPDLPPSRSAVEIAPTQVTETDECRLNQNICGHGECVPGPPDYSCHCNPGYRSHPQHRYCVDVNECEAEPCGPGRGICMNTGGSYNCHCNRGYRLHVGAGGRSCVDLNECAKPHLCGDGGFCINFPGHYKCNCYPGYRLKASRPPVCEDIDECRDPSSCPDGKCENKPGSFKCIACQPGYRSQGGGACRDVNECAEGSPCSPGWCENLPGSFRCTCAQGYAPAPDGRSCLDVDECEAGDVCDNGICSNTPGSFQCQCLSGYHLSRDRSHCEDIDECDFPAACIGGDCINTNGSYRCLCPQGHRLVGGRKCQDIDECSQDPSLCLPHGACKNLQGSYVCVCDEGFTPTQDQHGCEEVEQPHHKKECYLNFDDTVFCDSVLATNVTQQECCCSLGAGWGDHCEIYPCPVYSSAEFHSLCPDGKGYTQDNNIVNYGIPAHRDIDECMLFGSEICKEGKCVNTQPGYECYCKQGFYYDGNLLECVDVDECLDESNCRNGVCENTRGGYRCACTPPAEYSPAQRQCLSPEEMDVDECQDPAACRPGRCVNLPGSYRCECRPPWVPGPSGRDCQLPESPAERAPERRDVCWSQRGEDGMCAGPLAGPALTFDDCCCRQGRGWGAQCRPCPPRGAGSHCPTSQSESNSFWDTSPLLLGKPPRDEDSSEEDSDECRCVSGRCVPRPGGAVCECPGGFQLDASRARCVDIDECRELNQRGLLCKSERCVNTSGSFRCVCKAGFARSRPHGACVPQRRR
T4 sequence (P01137 30-390 limits assumed, chain 2 of 2): as the sequence (P01137 30-390 limits assumed, chain 2 of 2) above
T2 sequence (Q86YC3 19-650 limits assumed, chain 1 of 2): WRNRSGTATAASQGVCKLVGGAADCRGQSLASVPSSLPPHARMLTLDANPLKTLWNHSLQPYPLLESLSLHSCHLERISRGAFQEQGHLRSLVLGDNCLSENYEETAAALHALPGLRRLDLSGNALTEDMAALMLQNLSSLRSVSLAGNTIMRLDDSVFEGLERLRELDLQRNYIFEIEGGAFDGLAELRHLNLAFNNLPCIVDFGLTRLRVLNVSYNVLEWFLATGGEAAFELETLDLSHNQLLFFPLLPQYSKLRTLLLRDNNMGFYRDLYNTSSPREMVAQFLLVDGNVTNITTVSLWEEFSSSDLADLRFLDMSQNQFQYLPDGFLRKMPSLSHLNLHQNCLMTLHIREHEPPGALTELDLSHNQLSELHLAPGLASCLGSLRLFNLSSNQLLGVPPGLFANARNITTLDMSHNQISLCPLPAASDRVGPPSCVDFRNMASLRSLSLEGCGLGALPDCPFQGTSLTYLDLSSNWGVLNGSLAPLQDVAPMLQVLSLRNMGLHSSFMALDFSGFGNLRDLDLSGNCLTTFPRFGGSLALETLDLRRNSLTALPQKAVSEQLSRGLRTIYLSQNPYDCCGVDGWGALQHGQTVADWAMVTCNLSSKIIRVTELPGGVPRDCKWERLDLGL
T2 sequence (P01137 30-390 limits assumed, chain 2 of 2): as the sequence (P01137 30-390 limits assumed, chain 2 of 2) above
T1 sequence (Q14392 18-627 limits assumed, chain 1 of 2): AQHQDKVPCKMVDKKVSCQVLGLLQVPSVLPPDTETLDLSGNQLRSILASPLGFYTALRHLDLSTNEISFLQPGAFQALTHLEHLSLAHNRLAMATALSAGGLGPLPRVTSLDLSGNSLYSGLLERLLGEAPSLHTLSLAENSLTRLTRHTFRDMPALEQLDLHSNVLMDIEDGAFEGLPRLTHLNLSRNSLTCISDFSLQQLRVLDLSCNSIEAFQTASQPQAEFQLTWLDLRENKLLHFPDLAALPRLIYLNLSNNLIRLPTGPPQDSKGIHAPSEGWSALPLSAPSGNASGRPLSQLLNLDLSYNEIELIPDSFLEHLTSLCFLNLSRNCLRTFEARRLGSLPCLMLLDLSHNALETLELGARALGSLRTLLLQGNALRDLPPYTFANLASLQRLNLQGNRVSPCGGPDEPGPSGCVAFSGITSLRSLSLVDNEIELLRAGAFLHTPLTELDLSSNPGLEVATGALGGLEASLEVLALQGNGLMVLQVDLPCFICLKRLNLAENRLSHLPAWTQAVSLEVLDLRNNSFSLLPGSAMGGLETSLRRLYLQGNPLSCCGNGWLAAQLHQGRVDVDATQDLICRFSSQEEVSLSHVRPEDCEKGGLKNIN
T1 sequence (P01137 30-390 limits assumed, chain 2 of 2): as the sequence (P01137 30-390 limits assumed, chain 2 of 2) above

B1: Ab3 (antibody, V domains shown)
VH: EVQLLESGGGLVQPGGSLRLSCAASGFTFRNYAMSWVRQAPGKGLEWVSSISGSGGATYYADSVKGRFTISRDNSKNTLYLQMNSLRAEDTAVYYCARVSSGHWDFDYWGQGTLVTVSS
VL: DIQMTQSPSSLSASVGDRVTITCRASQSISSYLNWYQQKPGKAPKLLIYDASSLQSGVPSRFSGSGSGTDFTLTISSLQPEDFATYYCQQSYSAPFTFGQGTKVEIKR
For orientation: Kd means a measure of binding affinity in units of concentration. Read a low Kd as tighter binding. As to B1, the Kd with hGARP-proTGFβ1 [1] is 28 nM; in the experiment with hLRRC33-proTGFβ1 [2], 35 nM; with hLTBP1-proTGFβ1 [3], 13 nM; with hLTBP3-proTGFβ1 [4] it was 16.2 nM; with hGARP-proTGFβ1 [9] it was 17.3 nM; with hLRRC33-proTGFβ1 [10] it was 8.52 nM. The dissociation constant Kd with hLTBP1-proTGFβ1 [11] was found to be 0.47 nM; with hLTBP3-proTGFβ1 [12], 0.459 nM. The “IC50, in vitro potency assay” value came to 0.981 nM with hGARP-proTGFβ1 [5], 0.858 nM in the experiment with hLRRC33-proTGFβ1 [6], 24.3 nM with hLTBP1-proTGFβ1 [7] and 10.4 nM in the experiment with hLTBP3-proTGFβ1 [8].

B2: Ab6 (antibody, V domains shown)
VH: EVQLVESGGGLVQPGGSLRLSCTASGFTFSSFSMDWVRQAPGKGLEWVSYISPSADTIYYADSVKGRFTISRDNAKNTLYLQMNSLRAEDTAVYYCARGVLDYGDMLMPWGQGTLVTVSS
VL: DIQMTQSPSSLSASVGDRVTITCQASQDITNYLNWYQQKPGKAPKLLIYDASNLETGVPSRFSGSGSGTDFTFTISSLQPEDIATYYCQQADNHPPWTFGGGTKVEIKR
notes: Fully human IgG4/kappa
Take B2: the Kd was 0.027 nM in the experiment with hGARP-proTGFβ1 [1]; 0.063 nM in the experiment with hLRRC33-proTGFβ1 [2]; 0.018 nM in the experiment with hLTBP1-proTGFβ1 [3]; 0.029 nM with hLTBP3-proTGFβ1 [4]; 0.404 nM with hGARP-proTGFβ1 [9]; 0.336 nM with hLRRC33-proTGFβ1 [10]. Besides, the Kd with hLTBP1-proTGFβ1 [11] stood at 0.207 nM; with hLTBP3-proTGFβ1 [12], 0.123 nM; with hGARP-proTGFβ1 [13], 0.027 nM; in the experiment with mLRRC33-proTGFβ1, 0.048 nM; in the experiment with hLRRC33-proTGFβ1 [14], 0.063 nM; with mLTBP1-proTGFβ1, 0.024 nM. The Kd in the experiment with hLTBP1-proTGFβ1 [15] was determined as 0.018 nM; with mGARP-proTGFβ1, 0.021 nM; with hLTBP3-proTGFβ1 [16], 0.029 nM; with mLTBP3-proTGFβ1 it was 0.028 nM.
